Experiments:
MYC 304-354 WT (RBRIII) = MYC 304-354 WT (RBRIII) (UniProt P01106-1 304-354); test: fluorescence anisotropy
MYC 304-354 RBRIIIMUT = MYC 304-354 RBRIIIMUT (UniProt P01106-1 304-354, R316A;K317A;R331A;R334A;R340A;K341A); test: fluorescence anisotropy

MYC 304-354 WT (RBRIII), sequence (P01106 319-369): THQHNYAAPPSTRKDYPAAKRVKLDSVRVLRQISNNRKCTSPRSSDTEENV

B1: PTDSS2 RNA oligo (ssRNA)
RNA: GUGCAUGGGCAUGUGUGCUGUGUGUGUGCAGGCGACCGUAAACA
- binding result (MYC 304-354 WT (RBRIII)): binds
- binding result (MYC 304-354 RBRIIIMUT): no binding
